Measured values taken from patent US12358959B2, “Compositions and methods for oligodendrocyte development” (CHILDREN'S MEDICAL CENTER CORPORATION, priority 2016, dated 2025).
Each block holds one molecule with its values, some of them ahead of it.

Experiments:
GPR56^N = molecular target: T1, GPR56^N (Mus musculus, UniProt Q8K209); test: In vitro biotinylation/proteomics pull-down from mixed glial cell lysate with mass spectrometry; details: peptide sequences specific for binding to GPR56^N
T1 construct: Using the soluble N-terminal fragment of GPR56 (GPR56^N); made in house
Text: To identify the ligand of GPR56 in OPCs, an in vitro biotinylation/proteomics approach was employed using single-step capture on streptavidin beads to purify the binding partner(s) of GPR56 (FIGS. 2A-2B). Proteins with more than five identified tryptic peptides in the Mass Spectrometry (MS) output from three independent experiments are listed at Table 1.
(§1) GPR56^N and GPR56^Ndel fusions proteins with either mFc or hFc tag were generated as previously described (Luo et al. Proc Natl Acad Sci USA 108, 12925-12930, 2011). BirA enzyme was used to in vitro biotinylate GPR56^N-mFc-biotag protein as previously described (De Laurenzi and Melino Mol Cell Biol 21, 148-155, 2001). Mixed glial cell lysate was incubated with biotinylated GPR56^N protein in lysis buffer [20 mM Hepes (pH 7.3), 150 mM NaCl, and 5 mM MgCl2] with protein inhibitor mixture (Roche Molecular Biochemicals) and 1% Brij 96 (Fluka). Streptavidin beads (Sigma) were used to affinity purify immunocomplexes. GPR56-associated proteins were eluted in 2×SDS loading buffer, subjected to SDS/PAGE. The whole lane was used for MS at the Taplin Biological Mass Spectrometry at Havard Medical School. MS data were searched against the mouse International Protein Index (IPI mouse 339) database using the protein identification software Mascot (v2.2.04, Matrix Sciences) (Luo et al. Proc Natl Acad Sci USA 108, 12925-12930, 2011).
as §1, with “al.,” for “al.”, “(Stacey et al., J” for “(De Laurenzi and Melino Mol Cell”, “Chem 277, 29283-29293, 2002).” for “21, 148-155, 2001).”, “(20” for “[20”, “[pH 7.3],” for “(pH 7.3),”, “MgCl2)” for “MgCl2]”

[1] = molecular target: Transglutaminase 2 (Tgm2), mouse, endogenous (mixed glial cell lysate / microglia-derived) (mouse) (UniProt P21981); test: streptavidin pull-down of biotinylated GPR56^N-mFc from mixed glial cell lysate, tryptic peptide mass spectrometry
[2] = molecular target: Plectin (Plec), mouse, endogenous (mixed glial cell lysate) (mouse) (UniProt Q9QXS1); test: as above
[3] = test system: oligodendrocyte precursors (OPCs); test: OPC proliferation on laminin-111 or fibronectin with recombinant TG2; type: cell-based, mouse
Text: P=0.70 (control vs. TG2-W241A); **P=0.0088 (TG2 vs. TG2-W241A). […] FIG. 16D depicts a Western blot of active RhoA (top panel) and total RhoA (bottom panel) in the corpus callosum (CC) of Tgm2^+/+ and Tgm2^−/− mice. FIG. 16E is a graph showing that the relative level of active RhoA to total RhoA was diminished in the CC of Tgm2^−/− mice compared to […]. *P=0.0207, unpaired t-test, N=3 per genotype. FIG. 16F depicts a Western blot of GPR56^N in the supernatant of HEK 293T cell culture after exposed to either TG2 or TG2+laminin-111 (top panel), GTP-RhoA (middle panel) and total RhoA (lower panel) in HEK 293T cell pellet exposed to either TG2 or TG2+laminin-111. FIG. 16G is a graph showing that released GPR56 NTF was increased in the presence of both TG2 and laminin-111. ***P=0.0002; One-way ANOVA followed by Tukey post-hoc test, F (2,6)=49.66, n.s. P=0.95 (control vs. TG2); ***P=0.0003 (control vs. TG2+laminin-111); ***P=0.0004 (TG2 vs. TG2+laminin-111); N=3 per treatment group. FIG. 16H is a graph showing that the relative level of GTP-RhoA to total RhoA was increased in the presence of both TG2 and laminin-111, corresponding to the increased GPR56 NTF in the supernatant. **P=0.0028; One-way ANOVA followed by Tukey post-hoc test, F (2,6)=18.19, n.s. P=0.75 (control vs. TG2); **P=0.0035 (control vs. TG2+laminin-111); **P=0.0071 (TG2 vs. TG2+laminin-111) N=3 per treatment group. Error bars are mean±s.e.m in FIGS. 16E, 16G, and 16H.
To establish conditions for mechanistic investigation of the function of TG2 on OPC GPR56 during myelination and remyelination, in vitro experiments were performed with wt and Gpr56^−/− oligodendrocyte precursors (OPCs) and human recombinant TG2. […] TG2 is an extracellular protein with intrinsic transamidation activity, capable of cross-linking ECM proteins, including laminin-111 (Aeschlimann et al., J Biol Chem 267, 11316-11321, 1992; Belkin, FEBS J 278, 4704-4716, 2011). […] To confirm that TG2 regulates OPC proliferation in a GPR56-dependent manner, OPCs derived from P5 Gpr56^+/+ or Gpr56^−/− pups were cultured in the presence of laminin-111, with or without recombinant TG2. TG2-associated proliferation was attenuated in Gpr56^−/− OPCs (FIG. 16C), further supporting a GPR56-dependent TG2 function on OPC proliferation.
Oligodendrocyte precursor cells (OPCs) were isolated from mixed male and female P5-8 Gpr56^+/+ or Gpr56^−/− mouse forebrains as previously described (Wang et al., Neuron 29, 603-614, 2001; Watkins et al., Neuron 60, 555-569, 2008). Briefly, OPCs were purified by negatively selecting with mouse anti-Thy 1.2 (Serotec, Cat #MCA02R) and mouse anti-GalC (Millipore, Cat #MAB342), followed by mouse anti-04 (04 hybridoma supernatant) for positive selection. After releasing OPCs from the 04 plate by trypsinization, cells were resuspended in proliferation media containing PDGF-AA and NT-3 (PreproTech). OPCs were plated on coverslips coated with poly-D-lysine before coating with laminin I (R&D Systems, Cat #3400-010-01) or fibronectin (Millipore, Cat #341668) as previously described (Dugas et al., J Neurosci 26, 10967-10983, 2006). After 24 hr, TG2 (2 nM) was added to the cultures and incubated for an additional 24 hr before fixation with 4% PFA and staining for PDGFRα and Ki67.

Transglutaminase 2 (Tgm2), mouse, endogenous (mixed glial cell lysate / microglia-derived) (mouse), sequence (P21981 2-686 limits assumed): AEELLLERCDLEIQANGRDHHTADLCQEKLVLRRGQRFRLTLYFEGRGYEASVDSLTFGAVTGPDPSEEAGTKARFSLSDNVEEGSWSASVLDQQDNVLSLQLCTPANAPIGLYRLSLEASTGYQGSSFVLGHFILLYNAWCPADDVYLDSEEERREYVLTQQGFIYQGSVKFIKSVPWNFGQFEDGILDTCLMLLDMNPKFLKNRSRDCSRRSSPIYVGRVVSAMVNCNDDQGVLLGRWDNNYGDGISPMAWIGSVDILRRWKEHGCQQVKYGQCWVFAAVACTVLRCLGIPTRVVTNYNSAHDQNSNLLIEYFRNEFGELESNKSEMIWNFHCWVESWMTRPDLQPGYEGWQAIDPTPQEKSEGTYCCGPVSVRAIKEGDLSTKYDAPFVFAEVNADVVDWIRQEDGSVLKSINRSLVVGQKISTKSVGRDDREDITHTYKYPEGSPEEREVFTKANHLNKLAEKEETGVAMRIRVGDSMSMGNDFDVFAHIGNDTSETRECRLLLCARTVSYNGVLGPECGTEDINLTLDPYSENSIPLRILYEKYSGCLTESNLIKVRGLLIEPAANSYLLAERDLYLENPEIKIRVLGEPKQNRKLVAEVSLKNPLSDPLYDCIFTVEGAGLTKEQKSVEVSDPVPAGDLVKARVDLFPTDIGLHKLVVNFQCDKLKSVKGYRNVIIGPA
T1 sequence (Q8K209 26-382 limits assumed): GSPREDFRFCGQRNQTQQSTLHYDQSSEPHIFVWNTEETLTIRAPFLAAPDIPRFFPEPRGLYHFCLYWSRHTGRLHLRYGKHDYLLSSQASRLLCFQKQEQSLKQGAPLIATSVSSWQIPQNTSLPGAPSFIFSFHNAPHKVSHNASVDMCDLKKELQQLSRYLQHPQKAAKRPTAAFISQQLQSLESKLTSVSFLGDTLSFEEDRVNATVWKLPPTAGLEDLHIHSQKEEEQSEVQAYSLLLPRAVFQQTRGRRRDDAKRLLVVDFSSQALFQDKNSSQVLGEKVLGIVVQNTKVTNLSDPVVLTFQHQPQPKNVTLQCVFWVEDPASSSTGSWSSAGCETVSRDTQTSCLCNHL

Peptide Number (Exp1) (GPR56^N; experiment 1): 21
Peptide Number (Exp2) (GPR56^N; experiment 2): 22
Peptide Number (Exp3) (GPR56^N; experiment 3): 23
Molecule: Plectin (Plec): protein from mixed glial cell lysate purified with GPR56^N

Peptide Number (Exp1) [1]: 19 peptides
Peptide Number (Exp2) [1]: 20 peptides
Peptide Number (Exp3) [1]: 17 peptides
Peptide Number (Exp1) [2]: 21 peptides
Peptide Number (Exp2) [2]: 22 peptides
Peptide Number (Exp3) [2]: 23 peptides
Molecule: biotinylated GPR56^N-mFc-biotag protein (Fc fusion)

Molecule: fibronectin [reference compound]
OPC proliferation ([3]; wt OPCs, fibronectin as specificity control in place of laminin-111, with recombinant TG2): inert

B1: TG2-W241A: transamidation-inactive, enzymatic dead mutant TG2 protein (protein)
chain: MAEELVLERCDLELETNGRDHHTADLCREKLVVRRGQPFWLTLHFEGRNYEASVDSLTFSVVTGPAPSQEAGTKARFPLRDAVEEGDWTATVVDQQDCTLSLQLTTPANAPIGLYRLSLEASTGYQGSSFVLGHFILLFNAWCPADAVYLDSEEERQEYVLTQQGFIYQGSAKFIKNIPWNFGQFEDGILDICLILLDVNPKFLKNAGRDCSRRSSPVYVGRVVSGMVNCNDDQGVLLGRADNNYGDGVSPMSWIGSVDILRRWKNHGCQRVKYGQCWVFAAVACTVLRCLGIPTRVVTNYNSAHDQNSNLLIEYFRNEFGEIQGDKSEMIWNFHCWVESWMTRPDLQPGYEGWQALDPTPQEKSEGTYCCGPVPVRAIKEGDLSTKYDAPFVFAEVNADVVDWIQQDDGSVHKSINRSLIVGLKISTKSVGRDEREDITHTYKYPEGSSEEREAFTRANHLNKLAEKEETGMAMRIRVGQSMNMGSDFDVFAHITNNTAEEYVCRLLLCARTVSYNGILGPECGTKYLLNLNLEPFSEKSVPLCILYEKYRDCLTESNLIKVRALLVEPVINSYLLAERDLYLENPEIKIRILGEPKQKRKLVAEVSLQNPLPVALEGCTFTVEGAGLTEEQKTVEIPDPVEAGEEVKVRMDLLPLHMGLHKLVVNFESDKLKAVKGFRNVIIGPA
OPC proliferation, wild type TG2 vs enzymatic dead mutant ([3]; versus control, One-way ANOVA, Tukey post-hoc): failed to promote OPC proliferation and n.s.
